Assay results: patent US20190233519A1

Experiments:
[1] = target: biotin-labeled hCTLA-4/Fc protein (UniProt P16410); assay: FACS competition, biotin hCTLA-4-Fc on CHO cells expressing human B7-1
CTLA-4-His protein = CTLA-4-His protein (UniProt P16410); assay: SPR, antibody captured by Fc, CTLA-4-His as analyte
Chain of CTLA-4-His protein (P16410 37-161 limits assumed): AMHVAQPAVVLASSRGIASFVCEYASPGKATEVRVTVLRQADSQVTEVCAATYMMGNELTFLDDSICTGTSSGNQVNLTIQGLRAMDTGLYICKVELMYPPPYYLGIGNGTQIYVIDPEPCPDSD

Chain of biotin-labeled hCTLA-4/Fc protein (P16410 37-161): as the sequence (P16410 37-161 limits assumed) above

IC50 [1]: 8.5 nM
Kd (CTLA-4-His protein): 17.3 nM
Substance: ipilimumab (YERVOY®) (antibody)
